Reference: paper PMC5167418, “A Novel Functional Domain of Tab2 Involved in the Interaction with Estrogen Receptor Alpha in Breast Cancer Cells” (PLoS ONE, 2016)

Legend:
Recombinant human ERα [1] = biological target: T1, Recombinant human ERα (human, UniProt P03372 1-595)
T1 construct: recombinant human ERα, bought; also called recombinant hERα; source: bought: Life Technologies
T1 sequence (looked up): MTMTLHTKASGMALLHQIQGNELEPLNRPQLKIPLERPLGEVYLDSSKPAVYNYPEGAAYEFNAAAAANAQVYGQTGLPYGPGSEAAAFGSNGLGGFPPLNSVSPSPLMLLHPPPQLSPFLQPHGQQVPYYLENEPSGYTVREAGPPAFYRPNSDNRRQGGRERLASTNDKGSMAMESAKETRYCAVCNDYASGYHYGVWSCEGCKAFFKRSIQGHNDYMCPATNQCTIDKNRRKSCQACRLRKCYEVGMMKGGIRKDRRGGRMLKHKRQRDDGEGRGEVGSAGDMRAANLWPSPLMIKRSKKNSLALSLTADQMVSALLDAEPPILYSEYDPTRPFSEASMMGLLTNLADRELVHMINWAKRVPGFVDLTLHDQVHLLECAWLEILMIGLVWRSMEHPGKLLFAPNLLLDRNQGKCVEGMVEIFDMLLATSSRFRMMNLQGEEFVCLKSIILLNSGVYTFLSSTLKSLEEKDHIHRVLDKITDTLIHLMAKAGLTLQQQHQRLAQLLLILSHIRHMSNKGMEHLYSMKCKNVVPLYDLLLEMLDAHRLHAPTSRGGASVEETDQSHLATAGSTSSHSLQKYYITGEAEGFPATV

Recombinant human ERα [2] = biological target: T1, Recombinant human ERα; assay: pull-down; competition: 10 μg MBP-Tab2(406–531) preincubated 1 h at 4°C with synthetic Tab2 peptides (10 μM each, or Tab2-pept3 100 nM to 10 μM), then recombinant hERα (1 nM) 1.5 h at 4°C, amylose resin, immunoblot; conditions: both partners purified
Recombinant human ERα [3] = biological target: T1, Recombinant human ERα; assay: pull-down; competition screening: MBP-Tab2(406–531) and recombinant hERα (1 nM) with or without in vitro translated fragments of Tab2(406–531); the pair that is blocked; conditions: both partners purified

## TAT-Tab2-pept3 (from UniProt Q9NYJ8 480-496) (peptide)
Recombinant human ERα [1]
  proliferation (bromo-deoxyuridine incorporation) of MCF7 TamR cells in 1 μM 4OHT, peptide 1 to 100 μM, 24 h; the peptide is meant to interfere with Tab2/ERα: 50 to 70 µM

B1: Tab2-pept3 (peptide, UniProt Q9NYJ8 480-496, looked up)
peptide: VVSPTFELTNLLNHPDH
notes: 17-aa synthetic peptide mimicking aa; 480–496 of human Tab2, a portion of Fragment 4; includes the LTNLL motif; also called Tab2 mimic peptide; SRID peptide; source: synthetic peptide (microwave-assisted synthesis, RP-HPLC purified)
Recombinant human ERα [2]
  binding result: binds

B2: MBP-Tab2(406–531) (domain or fragment, human, UniProt Q9NYJ8 406-531, looked up)
chain: TLFISTNSGASAASRNMSGQVSMGPAFIHHHPPKSRAIGNNSATSPRVVVTQPNTKYTFKITVSPNKPPAVSPGVVSPTFELTNLLNHPDHYVETENIQHLTDPTLAHVDRISETRKLSMGSDDAA
notes: human Tab2, aa 406–531 (central domain); also called MBP-406-531Tab2; 406-531Tab2; source: bacteria, purified MBP fusion (pMALc2)
Recombinant human ERα [3]
  binding result: binds
